Here are results for 2 substances from article PMC11189300.

The assay has as its target KNL1 (construct of the BLI titrations with ZWINT). The assay can be described thus: BLI. The conditions noted are these: immobilized ligand KNL1, end of association (~500 s), parent read from panel c, read off a plot.

In the case of “ZWINT (from UniProt O95229) C54A; L67A; I110A; L114A”, the response amounted to 0.025 nm (analyte ZWINT^M1 15.6 nM, parent: est. 0.040); 0.052 nm (analyte ZWINT^M1 31.2 nM, parent: est. 0.056); 0.071 nm (analyte ZWINT^M1 62.5 nM, parent: est. 0.071); 0.1 nm (analyte ZWINT^M1 125 nM, parent: est. 0.10); 0.14 nm (analyte ZWINT^M1 250 nM, parent: est. 0.14); 0.2 nm (analyte ZWINT^M1 500 nM, parent: est. 0.19). For the same substance, under “analyte ZWINT^M1 1,000 nM, parent: est. 0.22”, the response came out at 0.19 nm.

Take “ZWINT (from UniProt O95229) C54A; S85R; I110A; L114A”: the response came to 0.055 nm (analyte ZWINT^M2 500 nM, parent: est. 0.19) and 0.11 nm (analyte ZWINT^M2 1000 nM, parent: est. 0.22).
